Test results: paper PMC4600597

Tested on: C[C@H](CCC[C@@H](C)[C@H]1CC[C@H]2[C@@H]3CCC4=CC(=O)CC[C@]4(C)[C@H]3CC[C@]12C)C(=O)SCCNC(=O)CCNC(=O)[C@H](O)C(C)(C)COP(=O)(O)OP(=O)(O)OC[C@H]1O[C@@H](n2cnc3c(N)ncnc32)[C@H](O)[C@@H]1OP(=O)(O)O
Assay: purified protein
Settings: pH 8.5; 25.0 °C

“MCR (Rv1143) (Mycobacterium tuberculosis H37Rv)” gave a Km of 6.5 ± 1.4 µM.
